{"source": "IntAct's records for PubMed 18612383", "parents": {"B1": {"name": "Cellular tumor antigen p53 (Mus musculus), P02340 (parent)", "chain": "MTAMEESQSDISLELPLSQETFSGLWKLLPPEDILPSPHCMDDLLLPQDVEEFFEGPSEALRVSGAPAAQDPVTETPGPVAPAPATPWPLSSFVPSQKTYQGNYGFHLGFLQSGTAKSVMCTYSPPLNKLFCQLAKTCPVQLWVSATPPAGSRVRAMAIYKKSQHMTEVVRRCPHHERCSDGDGLAPPQHLIRVEGNLYPEYLEDRQTFRHSVVVPYEPPEAGSEYTTIHYKYMCNSSCMGGMNRRPILTIITLEDSSGNLLGRDSFEVRVCACPGRDRRTEEENFRKKEVLCPELPPGSAKRALPTCTSASPPQKKKPLDGEYFTLKIRGRKRFEMFRELNEALELKDAHATEESGDSRAHSSYLKTKKGQSTSRHKKTMVKKVGPDSD"}}}
{"variants_of": "B1", "conditions": "with ep300_human EP300, Q09472"}
{"variant": "L25Q;W26S", "effect of a mutation on the interaction": "decreasing interaction"}
